Data as given in patent publication US12460006B2, “Antibodies against integrin alpha 11 beta 1” (Momenta Pharmaceuticals, Inc., priority 2019, dated 2025).
Residue numbers refer to the chain shown, from its start.

T1: I domain of α11β1 (Homo sapiens, UniProt Q9UKX5)
T1 construct: An in-house generated I domain of α11β1 was used; made in house
T1 sequence (Q9UKX5 164-345 limits assumed): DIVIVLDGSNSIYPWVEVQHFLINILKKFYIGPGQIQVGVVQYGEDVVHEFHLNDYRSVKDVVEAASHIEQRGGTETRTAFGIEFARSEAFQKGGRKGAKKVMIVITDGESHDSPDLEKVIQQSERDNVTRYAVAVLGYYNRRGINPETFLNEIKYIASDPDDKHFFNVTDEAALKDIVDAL

B1: 6-O12: mouse anti-α11β1 mAb; VH SEQ ID NO: 117, VL SEQ ID NO: 118 (antibody, V domains shown)
VH: EVKLEESGGGLVQPGGSMKLSCAASGFTFSDAWMDWVRQSPEAGLEWVAEIRNKAHNPATYYAESVKGRFTISRDDSKSSVYLQMNSLRAEDTGIYYCTLVAPDAMDYWGQGTSVTVSS
VL: DIVMSLSPSSLAVSVGEKVTMSCKSSQSLLYSRNQKNYLAWYQQKPGQSPKLLIYWASTRASGVPDRFTGSGSGTDFTLTISSVKAEDLAVYYCQQYYSYPYTFGGGTKLEIK
B2: 10-F23: mouse anti-α11β1 mAb; VH SEQ ID NO: 125, VL SEQ ID NO: 126 (antibody, V domains shown)
VH: QVTLKESGPGILQPSQTLSLTCSFSGFSLSTFAMGVGWIRQPSGKGLEWLAHIWWDDDKYYNPALKSRLTISKDTSKNHVFLKIANVDTADTATYYCARMPLTFYFDYWGQGTTLTVSS
VL: DVLLTQTPLSLPVSLGDQASISCRSSQSIVHSNGHTYLEWYLQKPGQSPKLLIYKVSNRFSGVPDRFSGSGSGTDFTLKISRVEAEDLGVYYCFQGSHVPFTFGGGTKLEIK
B3: 6-A12: mouse anti-α11β1 mAb; VH SEQ ID NO: 127, VL SEQ ID NO: 128 (antibody, V domains shown)
VH: B2 VH with S30R, H79Q
VL: B2 VL with L4M, H35N, N58T
B4: 6-M8: mouse anti-α11β1 mAb; VH SEQ ID NO: 129, VL SEQ ID NO: 130 (antibody, V domains shown)
VH: QVQLQQPGAELVMPGASVKLSCKASGYTFTNYWMHWVKQRPGQGLEWIGEIDPSDSYTNYNQKFKGKATLTVDKSSSTAYMQLSSLTSEDSAVYYCTRQGSTYAWGQGTSVTVSS
VL: DIVMTQAAFSNPVTLGTSASISCRSSKSLLHSNGITYLYWYLQKPGQSPQLLIYQMSNLASGVPDRFSSSGSGTDFTLRISRVEAEDVGVYYCAQNLELPPTFGGGTKLEIK
B5: 3-G5: mouse anti-α11β1 mAb; VH SEQ ID NO: 135, VL SEQ ID NO: 136 (antibody, V domains shown)
VH: QVQLQQSGAELARPGASVKLSCKASGYTFTSYGISWVKQRTGQGLEWIGEIFPRSSNTYYNEKFKGKATLTADKSSSTVYMEFRSLTSEDSAVYFCAREGGLAWFAYWGQGTLVTVSA
VL: DVVMTQTPLTLSVTIGQPASISCKSSQSLLYTNGNTYLNWLLQRPGQSPKRLIYLVSKLDSGIPDRFSGSGSGTDFTLRISRVEAEDLGVYYCLQSTHFPFTFGSGTKLEIK
B6: 16G7: rabbit anti-α11β1 mAb; heavy chain SEQ ID NO: 159, light chain SEQ ID NO: 160 (antibody)
heavy: METGLRWLLLVAVFKGVQCQEQLVESGGDLVKPGASLTLTCTASGFSFNKNYWMCWVRQAPGKGLEWIGCIYNGDGNTYYASWVNGRFTISKTSSTTVTLQMTSLTVADTAIYFCARLLNMWGPGTLVTVSSGQPKAPSVFPLAPCCGDTPSSTVTLGCLVKGYLPEPVTVTWNSGTLTNGVRTFPSVRQSSGLYSLSSVVSVTSSSQPVTCNVAHPATNTKVDKTVAPSTCSKPMCPPPELPGGPSVFIFPPKPKDTLMISRTPEVTCVVVDVSQDDPEVQFTWYINNEQVRTARPPLREQQFNSTIRVVSTLPIAHQDWLRGKEFKCKVHNKALPAPIEKTISKARGQPLEPKVYTMGPPREELSSRSVSLTCMINGFYPSDISVEWEKNGKAEDNYKTTPTVLDSDGSYFLYSKLSVPTSEWQRGDVFTCSVMHEALHNHYTQKSISRSPGK
light: MDTRAPTQLLGLLLLWLPGARCADIVMTQTPASVEAAVGGTVTIKCQASESIGNALAWYQQKPGQPPKLLIYTAATLASGVPSRFSGSGSGTEFTLTISGVQCDDAATYYCQSYYFTSVSSYGNAFGGGTEVVVKGDPVAPTVLIFPPAADQVATGTVTIVCVANKYFPDVTVTWEVDGTTQTTGIENSKTPQNSADCTYNLSSTLTLTSTQYNSHKEYTCKVTQGTTSVVQSFNRGDC
B7: 6-B21: mouse anti-α11β1 mAb; VH SEQ ID NO: 123, VL SEQ ID NO: 124 (antibody, V domains shown)
VH: EVQLQQSGPELVKPGASVKISCKASGYTFTDYYMNWVKQSHGKSLEWIGDINPHNGGTSFIQKFKGKATLTVDKSSSTAYMELRSLTSEDSAVYYCAPLGRKEGFAYWGQGTLVTVSA
VL: DTVLTQSPASLVVSLGQRATISCRASKSVSTSGYSYMHWYQQKPGQPPKLLIYLASNLESGVPARFSGSGSGTAFTLNIHPVEEEDAATYYCQHSRELPYTFGGGTKLEIK

Key:
[1] = molecular target: human α11β1 (Homo sapiens, UniProt Q9UKX5); assay: ELISA binding to recombinant human α11β1; details: binding Yes/No
Sequence of human α11β1 (Q9UKX5 23-1141 limits assumed): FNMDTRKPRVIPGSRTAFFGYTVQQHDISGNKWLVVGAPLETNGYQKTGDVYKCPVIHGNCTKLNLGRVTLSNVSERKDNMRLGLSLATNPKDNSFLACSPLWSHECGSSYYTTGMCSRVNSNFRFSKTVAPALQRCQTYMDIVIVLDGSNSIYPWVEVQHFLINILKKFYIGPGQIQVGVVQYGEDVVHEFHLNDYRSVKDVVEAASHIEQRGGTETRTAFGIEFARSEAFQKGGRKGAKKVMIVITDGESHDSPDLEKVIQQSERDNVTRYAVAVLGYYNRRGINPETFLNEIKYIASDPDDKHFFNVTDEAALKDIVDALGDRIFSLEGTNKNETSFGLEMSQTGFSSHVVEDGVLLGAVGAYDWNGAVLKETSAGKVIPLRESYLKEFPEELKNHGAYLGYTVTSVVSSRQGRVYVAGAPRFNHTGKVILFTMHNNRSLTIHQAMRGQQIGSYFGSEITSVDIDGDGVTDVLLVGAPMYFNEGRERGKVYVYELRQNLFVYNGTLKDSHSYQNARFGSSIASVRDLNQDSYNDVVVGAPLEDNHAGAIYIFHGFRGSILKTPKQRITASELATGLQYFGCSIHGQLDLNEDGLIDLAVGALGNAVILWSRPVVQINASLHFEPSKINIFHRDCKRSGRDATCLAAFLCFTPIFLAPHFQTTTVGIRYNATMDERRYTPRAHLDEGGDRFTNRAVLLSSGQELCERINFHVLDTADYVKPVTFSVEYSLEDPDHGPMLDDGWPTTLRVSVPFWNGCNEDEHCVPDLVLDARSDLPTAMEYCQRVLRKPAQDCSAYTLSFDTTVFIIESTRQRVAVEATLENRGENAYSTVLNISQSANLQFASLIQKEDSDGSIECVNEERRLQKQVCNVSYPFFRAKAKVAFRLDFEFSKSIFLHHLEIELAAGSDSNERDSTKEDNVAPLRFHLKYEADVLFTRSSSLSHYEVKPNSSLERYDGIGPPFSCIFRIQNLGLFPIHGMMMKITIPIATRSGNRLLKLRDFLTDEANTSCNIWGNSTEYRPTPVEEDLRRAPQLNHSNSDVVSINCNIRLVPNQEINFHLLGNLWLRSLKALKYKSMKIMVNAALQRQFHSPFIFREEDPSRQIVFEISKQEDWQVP
Sequence of human α11β1 (P05556 21-728 partner limits assumed): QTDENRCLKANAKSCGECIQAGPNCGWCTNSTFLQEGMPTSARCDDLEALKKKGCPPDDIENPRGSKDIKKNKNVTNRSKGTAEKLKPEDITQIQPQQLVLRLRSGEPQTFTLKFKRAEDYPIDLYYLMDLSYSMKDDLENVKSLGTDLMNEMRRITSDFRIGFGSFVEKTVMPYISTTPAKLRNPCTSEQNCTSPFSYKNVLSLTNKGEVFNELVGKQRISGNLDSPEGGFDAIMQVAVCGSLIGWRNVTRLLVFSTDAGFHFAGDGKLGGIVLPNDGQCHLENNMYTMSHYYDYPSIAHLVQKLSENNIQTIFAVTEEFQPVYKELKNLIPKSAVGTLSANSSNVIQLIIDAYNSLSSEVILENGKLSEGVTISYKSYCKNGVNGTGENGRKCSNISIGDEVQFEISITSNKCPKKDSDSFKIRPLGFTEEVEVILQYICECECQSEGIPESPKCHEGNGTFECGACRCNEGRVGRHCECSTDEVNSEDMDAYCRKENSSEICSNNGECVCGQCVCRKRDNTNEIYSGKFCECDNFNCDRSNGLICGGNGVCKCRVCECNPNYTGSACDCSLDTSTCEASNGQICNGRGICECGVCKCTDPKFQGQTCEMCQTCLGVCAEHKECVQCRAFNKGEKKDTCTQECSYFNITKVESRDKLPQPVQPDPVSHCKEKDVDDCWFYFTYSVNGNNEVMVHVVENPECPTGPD
Description: (§1) 0.25 μg/mL of target antigen (recombinant human or mouse α11β1) was plated in a 96-well plate over night at 4° C. Plates were washed (PBS with 0.1% Tween-20), blocked (PBS with 2% BSA and 0.05% Tween-20) for 1 hour at room temperature and incubated with a range of antibody concentrations for 1 hour at room temperature. Subsequently, plates were washed and incubated with biotinylated anti-rabbit/mouse/human IgG in a 1:1000 dilution buffer and incubated for 1 hour at room temperature. After washing the plates, Streptavidin HRP was added at 1:200 in dilution buffer and incubated for 1 hour at room temperature. Ultra TMB ELISA substrate solution was added and the plates incubated for 5 minutes on a plate shaker. The reaction was stopped by adding stop solution to each well and plates were read at 450 nm.

[2] = tested on: myofibroblasts (MF); assay: FACS antibody binding to myofibroblasts; parameters: species or system human; details: binding Yes/No
Description: (§2) Human Pulmonary Fibroblasts (ScienCell) were cultured in complete Fibroblast Growth Medium (ScienCell) until 80% confluent in T-150 flasks. Cells were washed and harvested using Accutase. Cells were seeded into T-150 flasks at 7,500 cells/cm^2 in complete FGF and cultured for 72 hours. Cells were then washed and starved in serum reduced medium for 24 hours. After starvation, cells were treated with TGFβ-1 (R&D Systems) for 72 hours. Cells were harvested using Accutase and seeded in 96-well conical bottom plates. Cells were blocked with Heat Inactived Fetal Bovine Serum (Gibco) for 30 minutes at 4° C. Cells were then incubated with anti-α11 antibodies at the doses described in each figure for 30 minutes at 4° C. A human anti-α11 antibody (Creative BioLabs) was included as a positive control as well as the appropriate IgG isotype negative controls. Cells were washed twice and incubated with PE conjugated secondary antibodies specific to the IgG class of the anti-α11 antibodies being tested for 30 minutes at 4° C. Cells were washed twice and fixed in 1% PFA for 30 minutes. Cells were acquired on a FACS Verse […]. Data were analyzed by gating on single cells and determining the geometric Mean Fluorescence Intensity (gMFI) in the PE channel for each sample.
(§3) Binding to a physiologically relevant primary human cell type was also tested. Human pulmonary fibroblasts (HPF) and TGFβ treatment were used to induce a fibroblast-to-myofibroblast transition (FMT), giving rise to myofibroblasts (MF). […] Additionally, HPFs express α11 and α2β1, other collagen binding receptors, which means that HPFs can be to test cross-reactivity of antibodies of interest.

[3] = tested on: CHO-K1 cells expressing human α11; assay: Cell adhesion inhibition (xCelligence), type I collagen; type: cell-based; details: for Inhibition of CHO-K1 adhesion to collagen: Yes/No
Method in brief: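 CHO-K1 cells expressing human α11 (0.6×10^6 cells/mL) were preincubated with mAbs across a concentration range for 20 min at 37° C, then seeded on wells coated with 100 ng/mL type I collagen and blocked with 3% BSA. Impedance-based adhesion was recorded over 6 h, and maximum adhesion was compared with untreated control.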

[4] = molecular target: T1, I domain of α11β1; assay: ELISA binding to in-house generated I domain of α11β1; details: Yes/No
Description: as §1
22 Data was also collected to determine whether antibodies of interest bind to the I domain of α11β1. An in-house generated I domain of α11β1 was used. […] Mouse antibodies 10-F23, 10-L15, 7-O8, 6-A12, 9-G05 and 9-E16 and rabbit antibodies 7-H12 and 2-D3 were also tested for binding against the in-house generated α11031 domain. FIGS. 3A and 3B show graphs illustrating binding data from exemplary mAbs.

[5] = tested on: α1β1, α2β1 and/or α10β1; assay: Counter-screen for cross-reactivity to other collagen receptors; type: binding, human; details: cross-reactivity to α1β1, α2β1, α10β1
Description: Wistar rats were immunized with recombinant human α11β1 protein. An enzyme-linked immunosorbent assay (ELISA) was used to test an immune response against target human and mouse proteins. Subsequently, cell fusion (by electro fusion) was performed with animals that produced a good immune response. All fused cells were plated in a 96-well plate and supernatants were screened by ELISA against soluble human and mouse α11β1. Positive clones were counter-screened against human α1β1, α2β1 and α10β1. […] Purified antibodies were then generated from the selected clones and heavy chain and light chain variable domain sequences were obtained from each purified antibody.
10 mice from 5 different strains were immunized with an appropriate mixture of human α11β1, mouse α11β1 and tolerance breaking protein. Plasma titers were evaluated by ELISA against a mixture of human and mouse α11β1. Popliteal, inguinal, and iliac lymph nodes were collected. ELISA-positive anti-human/mouse α11β1 hybridomas were expanded and subjected to a secondary screen against human and mouse α11β1, control HIS protein, and a counter-screen was performed against human […], α2β1 and α10β1. Supernatant IgG concentration was sufficient for functional screening. Selected hybridomas satisfying all the criteria were cloned and clonal hybridomas were confirmed by ELISA against human and mouse α11β1 and subsequently scaled-up and IgGs were purified. Heavy and light chain variable regions of selected hybridomas were then sequenced.
α11β1 belongs to a family of collagen receptors and has a relatively high homology to them. Therefore, the novel antibodies of this invention were counter-screened against α1β1, α2β1 and/or α10β1. Table 2 includes results of cross-reactivity to the other receptors.

[6] = tested on: human pulmonary fibroblasts (HPFs); assay: FACS antibody binding to human pulmonary fibroblasts; details: binding Yes/No
Description: as §2, §3

| Molecule | Human α11β1 ELISA [1] | MF FACS [2] | Inhibition of CHO-K1 adhesion to collagen [3] | I Domain binding [4] | Off Target [5] | HPF FACS [6] | inhibition of cell adhesion to type I collagen ([3]; CHO-K1 hu α11 cells) |
| --- | --- | --- | --- | --- | --- | --- | --- |
| B1 | Yes | No | No | No | No | No | – |
| B2 | Yes | Yes | Yes | Yes | No | No | – |
| B3 | Yes | Yes | Yes | Yes | No | No | – |
| B4 | Yes | No | No | No | No | No | – |
| B5 | Yes | No | No | No | No | No | – |
| B6 | Yes | Yes | No | No | No | No | didn't have an effect on cell adhesion |
| B7 | Yes | No | No | No | No | No | – |
